US8420311B2, “Method to block the infection by flaviviruses, molecules and uses” (Centro de Ingenieria Genetica y Biotecnologia, priority 2006, dated 2013)

Experiments:
[1] = target: T1, DIIIE2J (DIII from protein E of DV2) (Dengue virus type 2, UniProt P07564); assay: Direct binding between DIIIE2J and A2M measured by Biacore; design: species or system DV2 strain Jamaica 1409; conditions: restated in example 10
T1 construct: made in house; host or cells: Escherichia coli BL21(DE3)
Protocol: FIG. 6. Direct binding between DIIIE2J and A2M, measured by Biacore. Response curves obtained during and after the injection of (B) Monoclonal antibodies against DV serotype 2 (3H5) and against all FV (4G2); (C) Polyclonal mouse antibody preparations obtained by immunization with DV1 and DV2, including pre-immune sera and (D) A2M dilutions, at concentrations from 0.3 μMol/L to 3 μMol/L. The run was performed on PBS pH 7.4 at 25° C. The different A2M dilutions were loaded at a flow of 5 μL/min for 20 min. The response is represented in resonance units (RU) corrected for unspecific binding using the response from the channel without immobilized protein (less than 5% of the specific signal).
A cm5 chip (Biacore, Sweden) was used for the covalent immobilization of the DIIIE2J and LRP1 proteins. The immobilization was carried out at 25° C., with a flow of 5 μL/min and using HBS (Biacore, Sweden) as running buffer. The surface of the chip was activated by loading 35 μL of 0.2 Mol/L […] (EDC) and 0.05 Mol/L N-hydroxysuccinimide (NHS). Afterwards the proteins, dissolved in 10 mM sodium acetate buffer pH 4.5, were loaded into the system. At the end of the immobilization, 35 μL of 1 M ethanolamine pH 8 were loaded into the system in order to block any remaining free activated groups. The channel to be used as a negative control in each case received only the activating injections with the EDC:NHS solution and the blocking with ethanolamine, employing the same flow and injection volume. The results were analyzed using the BIAevaluation ver. 4.1 software application package (Biacore, Sweden).
In order to estimate the strength of the interaction between DIIIE2J and human A2M, 1600 RU of DIIIE2J were covalently immobilized on a CM5 chip (channel 1, FIG. 6A) (Biacore, Sweden), following the procedure described in the Materials and Methods section. […]

DV = assay: Inhibition of the infection of Vero cells with DV by pre-incubation of the virus with A2M; assay type: cell-based, dengue virus; conditions: stated to correspond with the affinity constant for DIIIE2J
Protocol: (§1) FIG. 20. Inhibition of the infection of Vero cells with DV by pre-incubation with A2M. Viral preparations were incubated 1 h at 25° C. (A and C) or the indicated time (B) with the proteins i. e. activated A2M (A2Mact), non-activated A2M (A2M no act) and a non-related protein (NR). The mixtures of the proteins with the virus were added to monolayers of Vero cells and incubated for 1 h at 37° C. The cell monolayers were washed to eliminate non-bound virus. Next, medium MEM supplemented with non-essential amino acids and 1% FBS, 1% CMC was added and the cells were incubated for 5 days at 37° C. in a CO2 incubator. To visualize the viral plaques, Vero cells were stained using Naphtol Blue Black. All experimental points were performed on duplicates.
To obtain further evidences of the interaction of DV with A2M, the two variants of the protein i.e. activated and non-activated were used in assays of inhibition of infection of Vero cells. The viral preparation was incubated with solutions of activated A2M of higher concentrations than the physiological concentrations reached by this variant of the protein. Solutions of equimolar concentration of non-activated A2M and a non-related protein were used as negative controls. […]

serotype 1 of DV = assay: as above; assay type: cell-based, dengue virus; conditions: FIG. 20C
Protocol: as §1

serotype 3 of DV = assay: as above; assay type: cell-based, dengue virus; conditions: FIG. 20C
Protocol: as §1

Vero cells = assay: Binding of fluoresceinated proteins to the surface of Vero cells (flow cytometry); assay type: cell-based, monkey; conditions: fluoresceinated proteins (FIG. 7A)
Protocol: FIG. 7. Inhibition of the binding of DIIIE2J to Vero cells by A2M and RAPR13. The pre-fixed cells were incubated with the fluoresceinated proteins, and the intensity of the fluorescence due to binding of the fluoresceinated ligands to the cells was measured by flow cytometry. Each experimental point represents data gathered from a minimum of 20 000 cells. (A) Binding of A2M and RAPR13 to the cells. The depicted values correspond to the average of the intensity of the fluorescence at each point of the assay minus the fluorescence obtained with untreated cells. (B) and (C) The cells were incubated with fluoresceinated DIIIE2J in the presence or absence of the non-fluoresceinated ligands, using the molar ratio indicated on each case. The % binding was calculated from the ratio of the average intensity of the fluorescence of the cells incubated with the mixture of fluoresceinated DIIIE2J plus the proteins, between that of the cells incubated only with fluoresceinated DIIIE2J.
In the case of cultured Vero cells, they were detached from the surface of the culture flask without using proteases, by incubation with PBS pH 7.4, 5 mM EDTA for 10 min. at 37° C., gently tapping the outside of the flask.
The cells, collected and washed as described above, were incubated in fixing solution (PBS pH 7.4, 2% paraformaldehyde, 0.01% NaN3, 1 mM CaCl2, 1 mM MgCl2 for 30 min at 4° C., and the fixing solution was then eliminated by centrifugation at 350×g for 5 min a 4° C. […] The intensity of the fluorescence was quantified by flow cytometry on a PAS III cytometer (Partec, Germany). The values for each experimental point were calculated from measurements on a minimum of 20 000 cells.
Given that this cell line is derived from monkey kidney cells and that the ligands for the A2MR receptor used in the assays are of human origin, a preliminary and necessary step was the corroboration of the binding of the RAPR13 and A2M MeNH2 proteins to Vero cells. With this aim, these proteins were fluoresceinated, and their binding to the surface of Vero cells was measured using flow cytometry. […]

T1 sequence (P07564 568-687, looked up, natural form): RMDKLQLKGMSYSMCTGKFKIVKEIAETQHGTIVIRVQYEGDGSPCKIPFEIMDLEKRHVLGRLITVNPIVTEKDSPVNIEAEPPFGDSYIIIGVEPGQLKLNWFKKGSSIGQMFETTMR

B1: activated A2M: purified human A2M activated by incubation with methylamine (protein)
chain: SVSGKPQYMVLVPSLLHTETTEKGCVLLSYLNETVTVSASLESVRGNRSLFTDLEAENDVLHCVAFAVPKSSSNEEVMFLTVQVKGPTQEFKKRTTVMVKNEDSLVFVQTDKSIYKPGQTVKFRVVSMDENFHPLNELIPLVYIQDPKGNRIAQWQSFQLEGGLKQFSFPLSSEPFQGSYKVVVQKKSGGRTEHPFTVEEFVLPKFEVQVTVPKIITILEEEMNVSVCGLYTYGKPVPGHVTVSICRKYSDASDCHGEDSQAFCEKFSGQLNSHGCFYQQVKTKVFQLKRKEYEMKLHTEAQIQEEGTVVELTGRQSSEITRTITKLSFVKVDSHFRQGIPFFGQVRLVDGKGVPIPNKVIFIRGNEANYYSNATTDEHGLVQFSINTTNVMGTSLTVRVNYKDRSPCYGYQWVSEEHEEAHHTAYLVFSPSKSFVHLEPMSHELPCGHTQTVQAHYILNGGTLLGLKKLSFYYLIMAKGGIVRTGTHGLLVKQEDMKGHFSISIPVKSDIAPVARLLIYAVLPTGDVIGDSAKYDVENCLANKVDLSFSPSQSLPASHAHLRVTAAPQSVCALRAVDQSVLLMKPDAELSASSVYNLLPEKDLTGFPGPLNDQDDEDCINRHNVYINGITYTPVSSTNEKDMYSFLEDMGLKAFTNSKIRKPKMCPQLQQYEMHGPEGLRVGFYESDVMGRGHARLVHVEEPHTETVRKYFPETWIWDLVVVNSAGVAEVGVTVPDTITEWKAGAFCLSEDAGLGISSTASLRAFQPFFVELTMPYSVIRGEAFTLKATVLNYLPKCIRVSVQLEASPAFLAVPVEKEQAPHCICANGRQTVSWAVTPKSLGNVNFTVSAEALESQELCGTEVPSVPEHGRKDTVIKPLLVEPEGLEKETTFNSLLCPSGGEVSEELSLKLPPNVVEESARASVSVLGDILGSAMQNTQNLLQMPYGCGEQNMVLFAPNIYVLDYLNETQQLTPEVKSKAIGYLNTGYQRQLNYKHYDGSYSTFGERYGRNQGNTWLTAFVLKTFAQARAYIFIDEAHITQALIWLSQRQKDNGCFRSSGSLLNNAIKGGVEDEVTLSAYITIALLEIPLTVTHPVVRNALFCLESAWKTAQEGDHGSHVYTKALLAYAFALAGNQDKRKEVLKSLNEEAVKKDNSVHWERPQKPKAPVGHFYEPQAPSAEVEMTSYVLLAYLTAQPAPTSEDLTSATNIVKWITKQQNAQGGFSSTQDTVVALHALSKYGAATFTRTGKAAQVTIQSSGTFSSKFQVDNNNRLLLQQVSLPELPGEYSMKVTGEGCVYLQTSLKYNILPEKEEFPFALGVQTLPQTCDEPKAHTSFQISLSVSYTGSRSASNMAIVDVKMVSGFIPLKPTVKMLERSNHVSRTEVSSNHVLIYLDKVSNQTLSLFFTVLQDVPVRDLKPAIVKVYDYYETDEFAIAEYNAPCSKDLGNA
- Kd [1]: 100 nM
- IC50 (DV): ~100 nM
- infection of Vero cells by serotype 1 of DV (serotype 1 of DV): inhibited infection
- infection of Vero cells by serotype 3 of DV (serotype 3 of DV): inhibited infection
- binding to the surface of Vero cells (Vero cells): concentration-dependant and saturable binding behavior
